Results as given in US20150203577A1 (Chugai, published 2015).
Substitutions are numbered along the chain they refer to. In names and notes the source's numbering stands.

T1: mouse FcγRII (mouse, UniProt P08101 30-210)
T1 construct: Extracellular domain with C-terminal His tag, made in FreeStyle 293 cells; also called mFcγRII; mFcgRII
T1 sequence: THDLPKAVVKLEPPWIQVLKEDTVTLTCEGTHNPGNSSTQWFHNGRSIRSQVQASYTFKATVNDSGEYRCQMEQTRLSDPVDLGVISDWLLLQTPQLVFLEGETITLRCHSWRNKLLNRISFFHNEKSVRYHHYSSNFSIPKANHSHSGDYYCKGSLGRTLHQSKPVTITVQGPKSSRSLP

T2: mouse FcγRIII (mouse, UniProt P08508 31-215)
T2 construct: Extracellular domain with C-terminal His tag, made in FreeStyle 293 cells; also called mFcγRIII; mFcgRIII
T2 chain: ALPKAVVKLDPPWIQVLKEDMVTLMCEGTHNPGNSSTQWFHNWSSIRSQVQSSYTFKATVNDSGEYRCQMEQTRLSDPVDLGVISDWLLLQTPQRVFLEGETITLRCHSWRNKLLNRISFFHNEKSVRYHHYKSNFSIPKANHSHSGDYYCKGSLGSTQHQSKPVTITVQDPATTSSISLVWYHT

B1: H237-MB601/MRAL-k0 (antibody, mouse IgG1, kappa)
heavy: QVQLQESGPGLVKPSETLSLTCAVSGHSISHDHAWSWVRQPPGEGLEWIGFISYSGITNYNPSLQGRVTISRDNSKNTLYLQMNSLRAEDTAVYYCARSLARTTAMDYWGEGTLVTVSSAKTTPPSVYPLAPGSAAQTNSMVTLGCLVKGYFPEPVTVTWNSGSLSSGVHTFPAVLQSDLYTLSSSVTVPSSTWPSETVTCNVAHPASSTKVDKKIVPRDCGCKPCICEVPEESSVDIFPPKPKDVLTITLTPKVTCVVVDISKDDPEVQFSWFVDDVEVHTAQTQPREEQFNSTFRSVSELPIMHQDWLNGKEFKCRVNSAAFPAPIEKTISKTKGRPKAPQVYTIPPPKEQMAKDKVSLTCMITDFFPEDITVEWQWNGQPAENYKNTQPIMDTDGSYFVYSKLNVQKSNWEAGNTFTCSVLHEGLHNHHTEKSLSHSPGK
light: not shown
notes: copies: 2 + 2
B2: H237-MB623/MRAL-k0 (antibody, mouse IgG1, kappa)
heavy: B1 heavy with V230A, P231Y, E233V, S234E, S235L, D237F
light: not shown
notes: copies: 2 + 2
B3: H237-MB642/MRAL-k0 (antibody, mouse IgG1, kappa)
heavy: B1 heavy with V230D, P231Y, E233V, S234E, S235Y, D237F
light: not shown
notes: copies: 2 + 2
B4: H237-MB618/MRAL-k0 (antibody, mouse IgG1, kappa)
heavy: B1 heavy with E229T, S234D, S235D, D237F
light: not shown
notes: copies: 2 + 2
B5: H237-MB658/MRAL-k0 (antibody, mouse IgG1, kappa)
heavy: B1 heavy with E229Q, V230P, P231N, E233V, S234E, S235F, D237F
light: not shown
notes: copies: 2 + 2
B6: H237-MB626/MRAL-k0 (antibody, mouse IgG1, kappa)
heavy: B1 heavy with V230T, P231Y, E233V, S234E, S235L, D237F
light: not shown
notes: copies: 2 + 2
B7: H237-MB700/MRAL-k0 (antibody, mouse IgG1, kappa)
heavy: B1 heavy with S234E, S235Y, D237F
light: not shown
notes: copies: 2 + 2
B8: H237-MB694/MRAL-k0 (antibody, mouse IgG1, kappa)
heavy: B1 heavy with V230D, E233V, S234E, S235Y, D237F
light: not shown
notes: copies: 2 + 2
B9: H237-MB643/MRAL-k0 (antibody, mouse IgG1, kappa)
heavy: B1 heavy with V230N, P231Y, E233V, S234E, S235Y, D237F
light: not shown
notes: copies: 2 + 2
B10: H237-MB625/MRAL-k0 (antibody, mouse IgG1, kappa)
heavy: B1 heavy with V230N, P231Y, E233V, S234E, S235L, D237F
light: not shown
notes: copies: 2 + 2
B11: H237-MB690/MRAL-k0 (antibody, mouse IgG1, kappa)
heavy: B1 heavy with E229T, V230P, P231A, E233V, S234E, S235Y, D237F
light: not shown
notes: copies: 2 + 2
B12: H237-MB641/MRAL-k0 (antibody, mouse IgG1, kappa)
heavy: B1 heavy with V230A, P231Y, E233V, S234E, S235Y, D237F
light: not shown
notes: copies: 2 + 2
B13: H237-MB688/MRAL-k0 (antibody, mouse IgG1, kappa)
heavy: B1 heavy with E229T, P231Y, E233V, S234E, S235N, D237F
light: not shown
notes: copies: 2 + 2
B14: H237-MB640/MRAL-k0 (antibody, mouse IgG1, kappa)
heavy: B1 heavy with E229Q, V230P, P231N, E233V, S234E, S235N, D237F
light: not shown
notes: copies: 2 + 2
B15: H237-MB624/MRAL-k0 (antibody, mouse IgG1, kappa)
heavy: B1 heavy with V230D, P231Y, E233V, S234E, S235L, D237F
light: not shown
notes: copies: 2 + 2
B16: H237-MB702/MRAL-k0 (antibody, mouse IgG1, kappa)
heavy: B1 heavy with E229T, V230A, P231Y, E233V, S234E, S235N, D237F
light: not shown
notes: copies: 2 + 2
B17: H237-MB685/MRAL-k0 (antibody, mouse IgG1, kappa)
heavy: B1 heavy with E229T, V230P, P231A, E233V, S234E, S235L, D237F
light: not shown
notes: copies: 2 + 2
B18: H237-MB692/MRAL-k0 (antibody, mouse IgG1, kappa)
heavy: B1 heavy with V230P, E233V, S234E, S235Y, D237F
light: not shown
notes: copies: 2 + 2
B19: H237-MB693/MRAL-k0 (antibody, mouse IgG1, kappa)
heavy: B1 heavy with E229T, V230D, P231Y, E233V, S234E, S235Y, D237F
light: not shown
notes: copies: 2 + 2
B20: H237-MB617/MRAL-k0 (antibody, mouse IgG1, kappa)
heavy: B1 heavy with E229T, S235D
light: not shown
notes: copies: 2 + 2
B21: H237-MB647/MRAL-k0 (antibody)
heavy: B1 heavy with E229I, V230P, P231A, E233V, S234E, S235Y, D237F
light: not shown
notes: 'T2301' read as T230I; copies: 2 + 2
B22: H237-MB703/MRAL-k0 (antibody, mouse IgG1, kappa)
heavy: B1 heavy with V230A, E233V, S234E, S235N, D237F
light: not shown
notes: copies: 2 + 2
B23: H237-MB691/MRAL-k0 (antibody, mouse IgG1, kappa)
heavy: B1 heavy with P231A, E233V, S234E, S235Y, D237F
light: not shown
notes: copies: 2 + 2
B24: H237-MB638/MRAL-k0 (antibody)
heavy: B1 heavy with E229I, V230P, P231A, E233V, S234E, S235N, D237F
light: not shown
notes: as for B21
B25: H237-MB611/MRAL-k0 (antibody, mouse IgG1, kappa)
heavy: B1 heavy with E229T, S234D, S235E, D237F
light: not shown
notes: copies: 2 + 2

The binders below were run against T1, mouse FcγRII (assay: SPR (Biacore), antibody captured on Protein L).
Procedure: (§1) Each altered antibody was analyzed for its interaction with each Fcγ receptor prepared above using Biacore T100 (GE Healthcare Japan Corp.), Biacore T200 (GE Healthcare Japan Corp.), Biacore A100, or Biacore 4000. The running buffer used was HBS-EP+ (GE Healthcare Japan Corp.). The assay temperature was set to 25° C. The sensor chips used were chips prepared by immobilizing Protein L (ACTIGEN or BioVision) onto Series S Sensor Chip CM5 (GE Healthcare Japan Corp.) or Series S Sensor Chip CM4 (GE Healthcare Japan Corp.) by the amine coupling method.
(§2) In order to calculate the KD value of each altered antibody for FcγR, kinetic analysis was conducted according to the following method: first, the antibody of interest was captured onto any of these chips and allowed to interact with mFcγR diluted with a running buffer. For the obtained sensorgram, the assay results were globally fit into the 1:1 Langmuir binding model using Biacore Evaluation Software to calculate an association rate constant ka (L/mol/s) and a dissociation rate constant kd (1/s). From these values, the dissociation constant KD (mol/L) was calculated.

Kd [nM]	Binder
389	B1
395	B2
197	B3
156	B4
415	B5
261	B6
582	B7
598	B8
126	B9
312	B10
204	B11
143	B12
513	B13
197	B14
263	B15
339	B16
537	B17
186	B18
267	B19
255	B20
200	B21
345	B22
559	B23
280	B24
192	B25

Biological target: T2, mouse FcγRIII
Experiment: SPR (Biacore), antibody captured on Protein L
Procedure: as §1, §2

Kd [nM]	Binder
3230	B1
3170	B2
5110	B3
2730	B4
4880	B5
2370	B6
11600	B7
16400	B8
2000	B9
2310	B10
2710	B11
2100	B12
6300	B13
1550	B14
2870	B15
3520	B16
5490	B17
4440	B18
5410	B19
2100	B20
2800	B21
4900	B22
7180	B23
3380	B24
3420	B25

These binders were tested against T1, mouse FcγRII (assay: SPR (Biacore), KD of H237-mIgG1/MRAL-k0 (same run) / KD of variant).
Procedure: as §1, §2

relative mFcγRII-binding activity (mIgG1 = 1) [fold]	Binder
0.55	B1
0.59	B2
1.65	B3
1.63	B4
0.56	B5
0.89	B6
0.56	B7
0.54	B8
1.83	B9
0.74	B10
1.6	B11
1.62	B12
0.63	B13
1.17	B14
0.88	B15
0.96	B16
0.61	B17
1.75	B18
1.22	B19
0.84	B20
1.16	B21
0.94	B22
0.58	B23
0.83	B24
1.11	B25

Biological target: T2, mouse FcγRIII
Experiment: as above
Procedure: as §1, §2

relative mFcγRIII-binding activity (mIgG1 = 1) [fold]	Binder
0.1	B1
0.1	B2
0.1	B3
0.13	B4
0.07	B5
0.14	B6
0.04	B7
0.03	B8
0.16	B9
0.14	B10
0.19	B11
0.15	B12
0.08	B13
0.21	B14
0.11	B15
0.14	B16
0.09	B17
0.12	B18
0.09	B19
0.15	B20
0.12	B21
0.1	B22
0.07	B23
0.1	B24
0.09	B25
